Data taken from paper PMC3635657 (Biochemical Journal, 2013).
Values belong to the molecule of their own block, whether it stands above or below them.

B1: TorD^His (hexahistidine-tagged TorD) (natural protein, E. coli, UniProt P36662 1-199, looked up)
chain: MTTLTAQQIACVYAWLAQLFSRELDDEQLTQIASAQMAEWFSLLKSEPPLTAAVNELENRIATLTVRDDARLELAADFCGLFLMTDKQAALPYASAYKQDEQEIKRLLVEAGMETSGNFNEPADHLAIYLELLSHLHFSLGEGTVPARRIDSLRQKTLTALWQWLPEFVARCRQYDSFGFYAALSQLLLVLVECDHQNR
B2: TorAΔSP (TorA Δ2–39, lacking its entire Tat signal peptide) (domain or fragment, E. coli, UniProt P33225 40-848, looked up)
chain: AQAATDAVISKEGILTGSHWGAIRATVKDGRFVAAKPFELDKYPSKMIAGLPDHVHNAARIRYPMVRVDWLRKRHLSDTSQRGDNRFVRVSWDEALDMFYEELERVQKTHGPSALLTASGWQSTGMFHNASGMLAKAIALHGNSVGTGGDYSTGAAQVILPRVVGSMEVYEQQTSWPLVLQNSKTIVLWGSDLLKNQQANWWCPDHDVYEYYAQLKAKVAAGEIEVISIDPVVTSTHEYLGREHVKHIAVNPQTDVPLQLALAHTLYSENLYDKNFLANYCVGFEQFLPYLLGEKDGQPKDAAWAEKLTGIDAETIRGLARQMAANRTQIIAGWCVQRMQHGEQWAWMIVVLAAMLGQIGLPGGGFGFGWHYNGAGTPGRKGVILSGFSGSTSIPPVHDNSDYKGYSSTIPIARFIDAILEPGKVINWNGKSVKLPPLKMCIFAGTNPFHRHQQINRIIEGLRKLETVIAIDNQWTSTCRFADIVLPATTQFERNDLDQYGNHSNRGIIAMKQVVPPQFEARNDFDIFRELCRRFNREEAFTEGLDEMGWLKRIWQEGVQQGKGRGVHLPAFDDFWNNKEYVEFDHPQMFVRHQAFREDPDLEPLGTPSGLIEIYSKTIADMNYDDCQGHPMWFEKIERSHGGPGSQKYPLHLQSVHPDFRLHSQLCESETLRQQYTVAGKEPVFINPQDASARGIRNGDVVRVFNARGQVLAGAVVSDRYAPGVARIHEGAWYDPDKGGEPGALCKYGNPNVLTIDIGTSQLAQATSAHTTLVEIEKYNGTVEQVTAFNGPVEMVAQCEYVPASQVKS
B3: TorAΔCT (TorA Δ676–848, lacking its entire C-terminal Domain IV) (domain or fragment, E. coli, UniProt P33225 1-675, looked up)
chain: MNNNDLFQASRRRFLAQLGGLTVAGMLGPSLLTPRRATAAQAATDAVISKEGILTGSHWGAIRATVKDGRFVAAKPFELDKYPSKMIAGLPDHVHNAARIRYPMVRVDWLRKRHLSDTSQRGDNRFVRVSWDEALDMFYEELERVQKTHGPSALLTASGWQSTGMFHNASGMLAKAIALHGNSVGTGGDYSTGAAQVILPRVVGSMEVYEQQTSWPLVLQNSKTIVLWGSDLLKNQQANWWCPDHDVYEYYAQLKAKVAAGEIEVISIDPVVTSTHEYLGREHVKHIAVNPQTDVPLQLALAHTLYSENLYDKNFLANYCVGFEQFLPYLLGEKDGQPKDAAWAEKLTGIDAETIRGLARQMAANRTQIIAGWCVQRMQHGEQWAWMIVVLAAMLGQIGLPGGGFGFGWHYNGAGTPGRKGVILSGFSGSTSIPPVHDNSDYKGYSSTIPIARFIDAILEPGKVINWNGKSVKLPPLKMCIFAGTNPFHRHQQINRIIEGLRKLETVIAIDNQWTSTCRFADIVLPATTQFERNDLDQYGNHSNRGIIAMKQVVPPQFEARNDFDIFRELCRRFNREEAFTEGLDEMGWLKRIWQEGVQQGKGRGVHLPAFDDFWNNKEYVEFDHPQMFVRHQAFREDPDLEPLGTPSGLIEIYSKTIADMNYDDCQGHPMWFEK

Legend:
[1] = biological target: TorD^His (hexahistidine-tagged TorD) (E. coli) (UniProt P36662); test: SEC-MALS
[2] = biological target: TorA signal peptide signal peptide (Escherichia coli) (UniProt P33225); conditions: cited from earlier work
[3] = biological target: B2; test: pull-down
[4] = biological target: B1; test: SEC-MALS

stoichiometry N [1]: 1
Molecule: TorA, full-length precursor (trimethylamine N-oxide reductase), cofactor-free (from UniProt P33225 40-848) (natural protein)

Molecule: TorD (from UniProt P36662)
Kd [2]: 59 nM

Molecule: B1
binding result [3]: binds

Molecule: B2
stoichiometry N [4]: 1

Molecule: B3
stoichiometry N [4]: 1
